Source: publication PMC10582448, “The Histone Chaperones SET/TAF‐1β and NPM1 Exhibit Conserved Functionality in Nucleosome Remodeling and Histone Eviction in a Cytochrome c‐Dependent Manner”

Tests used:
[1] = molecular target: cytochrome c (Homo sapiens, UniProt P99999 2-105); assay: NMR; reduced Cc 13 uM, dsDNA 26 uM; Met80 signal decreased on dsDNA addition; NMR: 10 mM sodium phosphate pH 7.4, 1 mM ascorbate, 1 mM TCEP, 5% D2O, 25 C; optical tweezers: 25 mM HEPES, 50 mM KCl, 0.1 mM EDTA, pH 7.5; conditions: protein: recombinant; blunt
Sequence of cytochrome c (P99999 2-105): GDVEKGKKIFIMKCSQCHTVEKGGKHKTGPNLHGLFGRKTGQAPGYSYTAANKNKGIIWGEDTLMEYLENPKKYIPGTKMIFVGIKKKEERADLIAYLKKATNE

[2] = molecular target: SET/TAF-Ibeta (Homo sapiens, UniProt Q01105-2 1-277); assay: NMR; 10 mM sodium phosphate pH 7.4; NMR: 10 mM sodium phosphate pH 7.4, 1 mM ascorbate, 1 mM TCEP, 5% D2O, 25 C; optical tweezers: 25 mM HEPES, 50 mM KCl, 0.1 mM EDTA, pH 7.5; conditions: protein: recombinant; tags: N-terminal 6xHis; chain copies: 2; blunt
Sequence of SET/TAF-Ibeta (Q01105 other isoform, or with tags, fused parts or gaps): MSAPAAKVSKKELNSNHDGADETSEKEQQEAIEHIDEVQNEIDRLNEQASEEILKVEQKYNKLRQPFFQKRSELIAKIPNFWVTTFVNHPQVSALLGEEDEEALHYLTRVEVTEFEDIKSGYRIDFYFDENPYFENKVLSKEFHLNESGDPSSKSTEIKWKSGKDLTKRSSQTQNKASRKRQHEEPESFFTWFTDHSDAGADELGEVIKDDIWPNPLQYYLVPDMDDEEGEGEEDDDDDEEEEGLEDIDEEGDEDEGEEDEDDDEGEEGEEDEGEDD

[3] = molecular target: histone H3 (Xenopus laevis, UniProt P84233 1-136); assay: NMR; H3 competes with Cc for dsDNA; NMR: 10 mM sodium phosphate pH 7.4, 1 mM ascorbate, 1 mM TCEP, 5% D2O, 25 C; optical tweezers: 25 mM HEPES, 50 mM KCl, 0.1 mM EDTA, pH 7.5; conditions: protein: recombinant; blunt

B1: 10-mer dsDNA (dsDNA)
DNA 1: TAGCGTAACG
DNA 2: CGTTACGCTA
binding result [1]: binds | binding result [2]: no binding | binding result [3]: binds
